Percent of cells characterized as osteoclasts data for one substance are collected here from patent US20220233650A1.

For this test, the target named is recombinant Factor VIII Fc fusion protein (rFVIIIFc) (human) [IgG part: P0DOX5]. Briefly: cell-based or functional assay.

As to “von Willebrand Factor (VWF) (from UniProt P04275 764-2813)”, the percent of cells characterized as osteoclasts at day 7 after rFVIIIFc together with VWF (14.2% with rFVIIIFc alone) is 45.7%.
